Molecular target: 6His-CpsR (Streptococcus pneumoniae D39, UniProt A0A0H2ZMA3 1-247)
Assay: EMSA; 0.25 uM probe; EMSA: 20 ul, LightShift kit buffer (composition not given) with 50 ng/ul poly(dI-dC), 20 min room temperature, 6% gel; footprinting: 400 ng probe in 40 ul, 30 min at 25 C
Conditions: protein: recombinant; tags: 6His; chain copies: 2; label: 5'-biotin (top strand); blunt

B1: WT 33-mer (dsDNA)
DNA 1: TGTCATGTTCTTATTTCATTTTACTATATTTTT
DNA 2: AAAAATATAGTAAAATGAAATAAGAACATGACA
B1: binds.
